Experimental findings from patent US20110046056A1, “APOA-1 PEPTIDE MIMETICS” (priority 2007, published 2011) are described below.

The assay deals with ATP-binding cassette transporter A1 (ABCA1) (mouse, UniProt P41233 1-2261). In words: cell-based or functional assay.

*1 amine or outer side, *2 acyl side, *3 side chain or, on linkers, in order; H or OH if unused. Bridges are numbered along the chain shown (N, C = ends). Where no end group is shown, it is not given here. Side-chain parts run from the residue outwards. [ ]: non-standard residue; d: D form. S6H = (2S)-2-aminooct-7-enoic acid, C=CCCCC[C@H](N[*:1])C(=O)[*:2]; OXA12 = PEG spacer connecting glycine to cholesterol; dGly(6-heptenyl) = C=CCCCCC[C@@H](N)C(=O)O; Ala(5-hexenyl) = C=CCCCCC[C@H](N)C(=O)O; Gla = N[C@@H](CC(C(=O)O)C(=O)O)C(=O)O; MA = not defined here; Aib = CC(C)(N)C(=O)O

ATP-binding cassette transporter A1 (ABCA1), sequence (P41233 whole entry): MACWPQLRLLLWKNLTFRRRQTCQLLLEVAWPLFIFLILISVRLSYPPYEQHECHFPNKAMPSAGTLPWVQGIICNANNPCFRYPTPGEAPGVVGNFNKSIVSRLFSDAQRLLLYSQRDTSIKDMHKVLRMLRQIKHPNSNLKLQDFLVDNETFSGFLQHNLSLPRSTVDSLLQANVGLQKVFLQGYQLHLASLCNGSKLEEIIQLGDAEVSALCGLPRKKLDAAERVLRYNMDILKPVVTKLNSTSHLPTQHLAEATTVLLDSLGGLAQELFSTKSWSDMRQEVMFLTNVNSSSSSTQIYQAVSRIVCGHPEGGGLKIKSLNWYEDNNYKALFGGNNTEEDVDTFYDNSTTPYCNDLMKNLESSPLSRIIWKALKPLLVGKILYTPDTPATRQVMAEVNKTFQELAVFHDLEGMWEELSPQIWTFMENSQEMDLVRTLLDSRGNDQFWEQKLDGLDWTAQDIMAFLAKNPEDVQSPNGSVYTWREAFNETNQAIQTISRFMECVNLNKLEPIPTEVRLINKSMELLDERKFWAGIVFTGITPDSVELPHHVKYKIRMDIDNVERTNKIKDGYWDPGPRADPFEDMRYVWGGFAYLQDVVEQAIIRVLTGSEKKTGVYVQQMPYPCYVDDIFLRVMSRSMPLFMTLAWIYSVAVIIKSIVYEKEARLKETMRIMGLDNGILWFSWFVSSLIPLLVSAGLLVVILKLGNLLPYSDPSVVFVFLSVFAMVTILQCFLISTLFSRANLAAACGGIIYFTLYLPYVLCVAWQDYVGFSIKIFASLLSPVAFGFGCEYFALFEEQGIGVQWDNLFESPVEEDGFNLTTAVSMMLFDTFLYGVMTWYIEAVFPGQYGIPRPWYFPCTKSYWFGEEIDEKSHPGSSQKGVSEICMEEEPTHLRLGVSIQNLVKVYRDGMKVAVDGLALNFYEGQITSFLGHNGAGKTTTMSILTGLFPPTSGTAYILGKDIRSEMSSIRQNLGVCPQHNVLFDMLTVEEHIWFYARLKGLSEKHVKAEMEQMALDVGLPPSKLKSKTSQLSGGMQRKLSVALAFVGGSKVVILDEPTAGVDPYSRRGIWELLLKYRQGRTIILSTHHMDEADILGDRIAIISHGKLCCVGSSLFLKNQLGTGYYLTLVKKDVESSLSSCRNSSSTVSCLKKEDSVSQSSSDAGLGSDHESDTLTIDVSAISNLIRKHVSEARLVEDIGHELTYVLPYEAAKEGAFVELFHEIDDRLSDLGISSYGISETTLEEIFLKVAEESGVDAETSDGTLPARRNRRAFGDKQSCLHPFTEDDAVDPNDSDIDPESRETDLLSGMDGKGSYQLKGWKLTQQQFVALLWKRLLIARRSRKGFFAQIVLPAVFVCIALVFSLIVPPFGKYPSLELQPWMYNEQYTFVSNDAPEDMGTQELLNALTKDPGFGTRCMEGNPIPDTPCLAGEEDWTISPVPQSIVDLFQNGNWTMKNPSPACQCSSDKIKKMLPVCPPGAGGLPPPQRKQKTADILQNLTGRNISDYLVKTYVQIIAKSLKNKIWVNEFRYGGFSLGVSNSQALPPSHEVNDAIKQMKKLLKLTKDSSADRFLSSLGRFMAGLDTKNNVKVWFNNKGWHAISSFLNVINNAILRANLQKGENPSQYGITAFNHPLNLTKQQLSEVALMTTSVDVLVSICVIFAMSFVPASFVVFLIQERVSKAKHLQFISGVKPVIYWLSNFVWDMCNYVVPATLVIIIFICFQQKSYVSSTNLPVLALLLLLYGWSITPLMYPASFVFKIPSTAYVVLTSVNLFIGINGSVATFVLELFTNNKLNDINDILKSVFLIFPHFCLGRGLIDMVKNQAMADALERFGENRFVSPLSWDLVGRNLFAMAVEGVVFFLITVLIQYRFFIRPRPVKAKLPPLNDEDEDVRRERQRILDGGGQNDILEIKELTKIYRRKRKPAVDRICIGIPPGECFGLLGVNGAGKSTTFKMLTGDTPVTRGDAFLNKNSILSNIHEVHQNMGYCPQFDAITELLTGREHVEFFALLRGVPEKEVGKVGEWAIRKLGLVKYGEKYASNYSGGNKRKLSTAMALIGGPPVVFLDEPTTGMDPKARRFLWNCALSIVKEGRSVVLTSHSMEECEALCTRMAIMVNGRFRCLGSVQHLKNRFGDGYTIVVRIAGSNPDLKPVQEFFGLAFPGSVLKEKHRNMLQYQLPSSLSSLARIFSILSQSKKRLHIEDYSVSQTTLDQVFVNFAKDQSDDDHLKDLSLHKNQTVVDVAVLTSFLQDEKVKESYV

As to Ac-P[Ala(5-hexenyl)]LDE[Ala(5-hexenyl)]REKLNE[Ala(5-hexenyl)]L[Gla]ALKQ[Ala(5-hexenyl)]LK [CONS[S7H^2,6,13,20, GLA^15]], the “ABCA1-dependent cholesterol efflux EC50” value amounted to 2.4 µM.

Regarding Ac-PVLDEFREKLNE[Aib]LEALKQKLK (not fully specified (C-terminus)) [AIB13], the “ABCA1-dependent cholesterol efflux, % at 100 uM” value was 6%.

In the case of PXLDEXREKLNEXLXALKQKLK (not fully specified; N-terminal acetyl (Ac-Pro); S7H at 2, 6 and 13; Gla at 15) [CONS[GLA^15, S7H^2,6,13]], the “ABCA1-dependent cholesterol efflux EC50” value is 0.6 µM.

Ac-P[Ala(5-hexenyl)]LDE[dGly(6-heptenyl)]REKLNE[Ala(5-hexenyl)]LEALKQKLK (not fully specified (C-terminus)) [CONS[R7H^6, S7H^2,13]]: the “ABCA1-dependent cholesterol efflux EC50” value was determined as 0.2 µM.

For the molecule Ac-PVLDEFREKLNE[Ala(5-hexenyl)]LEALKQKLKPVLDEFREKLNE[Ala(5-hexenyl)]LEALKQKLK [CONS[S7H^13]2], the “ABCA1-dependent cholesterol efflux EC50” value was determined as 41 µM.

In the case of Ac-PVLDE[Ala(5-hexenyl)]REKLNE[Ala(5-hexenyl)]LEALKQKLKGC(branched mPEG 40 kDa) [CONS[S7H^6,13]-GC-PEG40], the “ABCA1-dependent cholesterol efflux, % at 100 uM” value was determined as 1%.

Consider Ac-[dP][dV][dL][dD][dE][dGly(6-heptenyl)][dR][dE][dK][dL][dN][dE][dGly(6-heptenyl)][dL][dE][dA][dL][dK][dQ][dK][dL][dK] [D-CONS[R7H^6,13]], for which the “ABCA1-dependent cholesterol efflux, % at 100 uM” value was found to be 17.7%.

For Ac-[dP][dV][dL][dD][dE][Ala(5-hexenyl)][dR][dE][dK][dL][dN][dE][Ala(5-hexenyl)][dL][dE][dA][dL][dK][dQ][dK][dL][dK] (not fully specified (C-terminus)) [D-CONS[S7H^6,13]], the “ABCA1-dependent cholesterol efflux EC50” value came to 3 µM.

PVLDEXREKLNEXLXALKQXLK (not fully specified; N-terminal acetyl (Ac-Pro); S7H at 6, 13 and 20; Gla at 15) [CONS[GLA^15, S7H^6,13,20]]: the “ABCA1-dependent cholesterol efflux EC50” value is 0.5 µM.

On to Ac-[dP][dV][dL][dD][dE][S6H][dR][dE][dK][dL][dN][dE][dGly(6-heptenyl)][dL][dE][dA][dL][dK][dQ][dK][dL][dK] (not fully specified (C-terminus)) [D-CONS[S6H^6, R7H^13]], for which the “ABCA1-dependent cholesterol efflux EC50” value came out at 1.2 µM.

B1: (CONS[S7H^6,13]-GC)2 (peptide)
peptide: Ac-PVLDE[Ala(5-hexenyl)]REKLNE[Ala(5-hexenyl)]LEALKQKLKGCPVLDE[Ala(5-hexenyl)]REKLNE[Ala(5-hexenyl)]LEALKQKLKGC
modifications: disulfide 24-48; also: homodimer of two 24-residue chains listed as one 48-residue chain, second N-terminal acetyl not placed
For the molecule B1, the “ABCA1-dependent cholesterol efflux EC50” value turned out to be 1.5 µM.

Consider Ac-PVLDE[Ala(5-hexenyl)]REKLNE[Ala(5-hexenyl)]LEALKQKLKGC([MA-OXA12-Gly-cholesterol]) (not fully specified; reading uncertain) [CONS[S7H^6,13]-GC-OXA12-CHOLESTEROL], for which the “ABCA1-dependent cholesterol efflux, % at 30 uM” value was 1.9%.

Turning to Ac-P[Ala(5-hexenyl)]LDE[Ala(5-hexenyl)]REKLNE[Ala(5-hexenyl)]LEALKQ[Ala(5-hexenyl)]LK [CONS[S7H^2,6,13,20]], the “ABCA1-dependent cholesterol efflux EC50” value was determined as 2 µM.
